# In the supplement of paper PMC9170038:
# Test system: K4 kissing-loop RNA reporter
# Assay: apparent KD of K4 kissing-loop reporter; higher = weaker reporter binding
# Conditions: Eterna round: R107; input ligand: arginine 13.2 mM
# Method: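 RNA-MaP round R107: designed RNA switches with theophylline, tryptophan, arginine or FMN aptamers are transcribed on-chip within common flanks. They are titrated with a labelled K4 kissing-loop RNA reporter in RNA-MaP buffer (100 mM Tris pH 7.5, 80 mM KCl, 4 mM MgCl2), without ligand or with the indicated ligand. Median apparent KD per design.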
# 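Also: bound reporter read as fluorescence of individual clusters on recovered sequencing chips by microscopy, with normalized cluster intensities fitted with a binding model.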
row,Sequence,apparent KD of K4 kissing-loop reporter [µM]
1,UAGUCAUACAGAGGAUAUCGUAUGAGUGAUGUUCAUACGAUAUAAUCUAAUUGUAUAGAUGUUCGACGAGAAGGCUGUAUGACUA [FMN B Ex t1a],0.0845
2,UGUCAUGGAAACAUGAACGUUGAAAUAAAUCGAGGACCGGUACGGCCGCCACUCGUAUAGCGGUCAGUGAUGUUGACUGUAAUAA [KL-SSTryp-A form2 sub9],0.112
3,GUAUACAUAGAUCACCUUGUAGUGAUGUUGCGAGGACCGGUACGGCCGCCACUCGAAGUACGAAAGUACAAAGAUCUAUGUAUAC [Exclusion Trypto A - 1],0.131
4,CAUACGCAUGGAGGAUAUGAGAUUACUCGUAUCAUUUAAUAUUCUCAGUGAUGUUGAGAUUUGGGCUCAGAAGGCCAUGUGUAUG [Ex FMN B 16],0.261
5,CCAGAAUGAUGAAGAUGAUAAAUUACUGAAGGAGCGCAUAUAGUUGCAGGUAGGUCGCGGUGAAUAAGUAUAGUGAUGUUAUACC [SSArgA.Ac],0.167
6,UUUGUAUAGGGAAGGAGCGUGAAUGAUAAUGAAUAUAGUGAUGUUAUAUAUAAGAAAGAAUCACAGGUAGGUCGCCCGGAUGAGU [SSArgB.L],0.323
7,CGCGCGCGUUUGAGAGGGUGCGCGCGAAGUGAGGAUAUUUAGGGAGAAAGAAGGCACUAUAAAAUAUAGUGAUGUUAUAUAAGGG [SSFMNA.G],0.114
8,AGAUUCGACACGGCCGCCACUUCCAGUGGUCGGUGUCAUGGUGCACAUGAGUGAUGUUCAUGUGGAAGGACCGGGUGUUGAGUCU [KL-XTryp-B3 #analogue],0.0914
9,CGCGCGGGUUGAGAGGUUCGCGCGAAUGAUACCAGUAUAUAAGAAUACCCUUGGCAGCAUAAGAAAGAUAUAGUGAUGUUGUAUA [SSTheophA.G],0.211
10,GUAUUUCCCUCGGAUACCAGUCAUCAUGAGUAUAGUGAUGUUGUACGUCCGGAUGAUUUUGACCCUUGGCAGCCGUCUCCUUGAA [theeternabot_sameState_KL_Theo_B_49],0.371
11,UGGAGUUGACGAAAAGUCAACUCCUGAGAUACCAGUGACGAAAGUCACCCUUGGCAGCUCACUGCCAGUGAUGUUGGAAAAUAAA [#OpenEnded 1],0.295
12,UGUAUGUGAUUUGAUACCAGACCAGCUGGUGGAUCACGAGUGAUGUUCGUGUUGGUUUGGGUCCCUUGGCAGCAAAUCGCAUACU [KL-SSTheoB13],0.151
13,CGCAGUGAUGUUGCGAGUAGCUACAGGGAAGGAGCGUGCUAGAGCACAGGUAGGUCGCCCACUGGGUCAGUGAUGUUGGUCGGGU [Same State Arginine A GF 29],0.166
14,GUGCGGCUAGUGAUGUUGGUUGCGUGGGAAGGAGCGCAGAAACAUGCAGGUAGGUCGCCCACAUCUCUGAUAAAAGAUUAAUUCA [Riares],0.254
15,UGAUAGGACAGAAGGAGCGGAGCUGGUCAAAGACCAGCAAUAACGUUGAAAGGAGUGAUGUUCCAGGUAGGUCGCUGUCCUAUCU [ArgBX 26 #SwitchBubble #StaticStem],0.13
16,AGAGUACGAAAGUACUCCUCUACACACUGCCGAGGACCGGUACGGCCGCCACUCGAGUUGAGUGAUGUUCGACAGUGUGUAGAGA [Omei KL Tryp A SS C v2],0.0562
17,CCGAAGAACCAGUGAUGUUGGUUGACUAGACAGGAUAUGAGCAACAUCAGAAGGGUCUGGCUUCGGGAGUGAGUCGCGCUGACUU [Reverigeed],0.192
18,GUAUCGCUAGGAGGAUAUGUCGUUUUUCAUAGCAAUGGCUGUGCGGAGUGAUGUUCCGAUUUACCGGCAGAAGGCCUAGUGAUAC [FMN B 28],0.104
19,AAGAGCUAGGCGGCCGCCACUAGAUGUGAACACAUACAAACCAGUGAUGUUGGUAUGAUGGACAGUAGGACCGGGCCUAGCUGAA [Exclusion - Tryptophan B (Freestyle 10)],0.585
20,UGAUAGGACAGAAGGAGCGGAAGUGAUGUUUCCAAAUGGAAUAAGGUGUCAAAGACACCCUUCCAGGUAGGUCGCUGUCCUAUCU [ArgBX 15 #Palindromic #SwitchBubble #StaticStem],0.175
21,AAAUAUUCGAGUGAUGUUCGAUAAAUUUCAGAGGAUAUGCUUAAAAGCAGAAGGCUGUAUUUCUAUUUGUUAUUAAAUUUUAUAA [JR_ExcFMNA_Sub002],0.107
22,AAAUAAAUCACGGCCGCCACUGUAAGUUGAAGUGAUGUUUCAAGAUAUAGUAUGUUUUAUAAUAUCAGGACCGGGUGAUUUUUAA [JR_SSTryptoB_Sub021],0.103
23,AAUUUACAAUAAUCAUUUAAAGGAUCAGAAGGAGCGUGUUAUAACACAGGUAGGUCGCUGAGCGAGUGAUGUUCGCUAUAUACAA [JR_ExcArginiA_Sub002],0.0977
24,UAACUGCAGUGAUGUUGCAGAUGUCCUGACUAGGAUAUCAGGAAACUGAGAAGGAGUCCCUUCUACUGCAACAAGAAGGAGGACA [[K1]-[K2]-[F1]'-[F1]-[F2]-[F2]'-[K]'-[F]''_Design2],0.347
25,GUGCAGUGAUGUUGCACGAGGAAAGACGAUACCAGCCGUAAAUAAGGCCCUUGGCAGCGUAAGCUAGCAUAAAGUAUGCUAGUCC [Onarve],0.102
26,GGAUCCACCAGUGAUGUUGGAGAAAACUUCAAGGAUAUGACGAAAGUCAGAAGGUGAUAGACUGGACAAAGUCCGGUCGGAUCCA [FmnA 19 U29+A57],0.729
27,GCCGUAGAUUGAAGGAGCGCUAGUCUACGAUGACACACAGUGAUGUUGUGCGUGAUUUCAUAGCAGGUAGGUCGCAAUCUACGGC,0.195
